Test results taken from article doi:10.1101/663153 (bioRxiv, 2019).

Target: T1, CysLTR2-GFP10-1D4 L129Q (human, UniProt Q9NS75 1-346, L129Q)
T1 sequence (looked up): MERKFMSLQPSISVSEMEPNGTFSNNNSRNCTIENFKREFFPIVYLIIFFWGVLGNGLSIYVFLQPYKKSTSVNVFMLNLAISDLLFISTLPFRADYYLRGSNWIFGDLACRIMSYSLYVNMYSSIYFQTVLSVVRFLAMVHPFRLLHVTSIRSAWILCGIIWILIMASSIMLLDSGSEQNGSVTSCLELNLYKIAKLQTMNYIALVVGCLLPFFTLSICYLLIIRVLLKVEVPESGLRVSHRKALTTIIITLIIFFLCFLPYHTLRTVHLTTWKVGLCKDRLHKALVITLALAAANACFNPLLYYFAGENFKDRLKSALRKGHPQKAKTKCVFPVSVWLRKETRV
Assay: FRET or BRET

ligand-independent net BRET^2 ratio: 0.00151 ± 0.0004
B1: β-Arrestin1-RLuc3 (natural protein, UniProt P49407 1-418, looked up)
chain: MGDKGTRVFKKASPNGKLTVYLGKRDFVDHIDLVDPVDGVVLVDPEYLKERRVYVTLTCAFRYGREDLDVLGLTFRKDLFVANVQSFPPAPEDKKPLTRLQERLIKKLGEHAYPFTFEIPPNLPCSVTLQPGPEDTGKACGVDYEVKAFCAENLEEKIHKRNSVRLVIRKVQYAPERPGPQPTAETTRQFLMSDKPLHLEASLDKEIYYHGEPISVNVHVTNNTNKTVKKIKISVRQYADICLFNTAQYKCPVAMEEADDTVAPSSTFCKVYTLTPFLANNREKRGLALDGKLKHEDTNLASSTLLREGANREILGIIVSYKVKVKLVVSRGGLLGDLASSDVAVELPFTLMHPKPKEEPPHREVPENETPVDTNLIELDTNDDDIVFEDFARQRLKGMKDDKEEEEDGTGSPQLNNR
